# In article PMC5278371:
# B1: β-glucosidase (BG), his-tagged (Coptotermes formosanus) (protein)
# chain: DDVDNDTLVTFPDDFKLGAATASYQIEGGWDADGKGPNIWDTLTHERPHLVVDRSTGDVADDSYHLYLEDVRLLKDMGAEVYRFSISWARILPEGHDNNVNEAGIEYYNKLIDALLRNGIEPMVTMYHWDLPQKLQDLGGWPNRILAKYAENYARVLFSNFGDRVKQWLTFNEPLTFMDAYASDTGMAPSVDTPGIGDYLTAHTVILAHANIYRLYEREFREEQQGQVGIALNIHWCEPETGSPKDVEACERYQQFNLGIYAHPIFSENGDYPSVLKARVDANSASEGYTTSRLPKFTPEEVAFVNGTYDFLGLNFYTAVVGRDGVEGEPPSRYRDMGTITSQDPEWPESASSWLRVVPWGFRKELNWIANEYGNPPIFITENGFSDYGGVNDTNRVLYYTEHLKEMLKAIHIDGVNVIGYTAWSLIDNFEWLRGYTERFGIHAVNFIDPSRPRTPKESARVLTEIFKTRQIPERFRD
# Substrate: O=[N+]([O-])c1ccc(O[C@@H]2O[C@H](CO)[C@@H](O)[C@H](O)[C@H]2O)cc1
# Assay: purified protein
# Settings: free enzyme, 2–16 mM p-NPG, 50 mM NaAc-HAc buffer, 40 °C
protein,measurement,value
B1,Km,4.2 ± 0.3 mM
same,kcat,58.8 s⁻¹
same,kcat/Km,14000 M⁻¹ s⁻¹
